In patent US20210388087A1 (Chugai, published 2021):
Changes are numbered by the printed parent chain.

B1: CE115HA000 I51E (antibody, human IgG1, kappa, L234A L235A, N297A, name in Kabat numbering)
heavy: QVQLVESGGGVVQPGRSLRLSCAASGFTFSNAWMHWVRQAPGKGLEWVAQEKAKSNNYATYYAESVKGRFTISRDDSKNSLYLQMNSLKTEDTAVYYCRYVHYGAYYGVDAWGQGTTVTVSSASTKGPSVFPLAPSSKSTSGGTAALGCLVKDYFPEPVTVSWNSGALTSGVHTFPAVLQSSGLYSLSSVVTVPSSSLGTQTYICNVNHKPSNTKVDKKVEPKSCDKTHTCPPCPAPEAAGGPSVFLFPPKPKDTLMISRTPEVTCVVVDVSHEDPEVKFNWYVDGVEVHNAKTKPREEQYASTYRVVSVLTVLHQDWLNGKEYKCKVSNKALPAPIEKTISKAKGQPREPQVYTLPPSRCELTKNQVSLSCAVKGFYPSDIAVEWESNGQPENNYKTTPPVLDSDGSFFLVSKLTVDKSRWQQGNVFSCSVMHEALHNHYTQKSLSLSPDYKDDDDK
chain: EPKSSDKTHTCPPCPAPELLGGPSVFLFPPKPKDTLMISRTPEVTCVVVDVSHEDPEVKFNWYVDGVEVHNAKTKPREEQYNSTYRVVSVLTVLHQDWLNGKEYKCKVSNKALPAPIEKTISKAKGQPREPQVCTLPPSRDELTKNQVSLWCLVKGFYPSDIAVEWESNGQPENNYKTTPPVLDSDGSFFLYSKLTVDKSRWQQGNVFSCSVMHEALHNRYTQKSLSLSP
light: DIVMTQSPLSLPVTPGEPASISCRSSQSLVHSNRNTYLHWYQQKPGQAPRLLIYKVSNRFSGVPDRFSGSGSGTDFTLKISRVEAEDVGVYYCGQGTQVPYTFGQGTKLEIKRTVAAPSVFIFPPSDEQLKSGTASVVCLLNNFYPREAKVQWKVDNALQSGNSQESVTEQDSKDSTYSLSSTLTLSKADYEKHKVYACEVTHQGLSSPVTKSFNRGEC
notes: one-arm antibody
B2: CE115HA000 K52bA (antibody, human IgG1, kappa, L234A L235A, N297A, name in Kabat numbering)
heavy: B1 heavy with E51I, K54A
chain: B1 chain
light: B1 light
notes: one-arm antibody
B3: CE115HA000 K64E (antibody, human IgG1, kappa, L234A L235A, N297A, name in Kabat numbering)
heavy: B1 heavy with E51I, K67E
chain: B1 chain
light: B1 light
notes: one-arm antibody
B4: CE115HA000 K75R (antibody, human IgG1, kappa, L234A L235A, N297A, name in Kabat numbering)
heavy: B1 heavy with E51I, K78R
chain: B1 chain
light: B1 light
notes: one-arm antibody
B5: CE115HA000 K52bN (antibody, human IgG1, kappa, L234A L235A, N297A, name in Kabat numbering)
heavy: B1 heavy with E51I, K54N
chain: B1 chain
light: B1 light
notes: one-arm antibody
B6: CE115HA000 K64D (antibody, human IgG1, kappa, L234A L235A, N297A, name in Kabat numbering)
heavy: B1 heavy with E51I, K67D
chain: B1 chain
light: B1 light
notes: one-arm antibody
B7: CE115HA000 K52N (antibody, human IgG1, kappa, L234A L235A, N297A, name in Kabat numbering)
heavy: B1 heavy with E51I, K52N
chain: B1 chain
light: B1 light
notes: one-arm antibody
B8: CE115HA000 N31A (antibody, human IgG1, kappa, L234A L235A, N297A, name in Kabat numbering)
heavy: B1 heavy with N31A, E51I
chain: B1 chain
light: B1 light
notes: one-arm antibody
B9: CE115HA000 K52bL (antibody, human IgG1, kappa, L234A L235A, N297A, name in Kabat numbering)
heavy: B1 heavy with E51I, K54L
chain: B1 chain
light: B1 light
notes: one-arm antibody
B10: CE115HA000 N31D (antibody, human IgG1, kappa, L234A L235A, N297A, name in Kabat numbering)
heavy: B1 heavy with N31D, E51I
chain: B1 chain
light: B1 light
notes: one-arm antibody
B11: CE115HA000 K52bD (antibody, human IgG1, kappa, L234A L235A, N297A, name in Kabat numbering)
heavy: B1 heavy with E51I, K54D
chain: B1 chain
light: B1 light
notes: one-arm antibody
B12: CE115HA000 K52bY (antibody, human IgG1, kappa, L234A L235A, N297A, name in Kabat numbering)
heavy: B1 heavy with E51I, K54Y
chain: B1 chain
light: B1 light
notes: one-arm antibody
B13: CE115HA000 K52R (antibody, human IgG1, kappa, L234A L235A, N297A, name in Kabat numbering)
heavy: B1 heavy with E51I, K52R
chain: B1 chain
light: B1 light
notes: one-arm antibody
B14: CE115HA000 N31F (antibody, human IgG1, kappa, L234A L235A, N297A, name in Kabat numbering)
heavy: B1 heavy with N31F, E51I
chain: B1 chain
light: B1 light
notes: one-arm antibody
B15: CE115HA000 K52W (antibody, human IgG1, kappa, L234A L235A, N297A, name in Kabat numbering)
heavy: B1 heavy with E51I, K52W
chain: B1 chain
light: B1 light
notes: one-arm antibody
B16: CE115HA000 K43E (antibody, human IgG1, kappa, L234A L235A, N297A, name in Kabat numbering)
heavy: B1 heavy with K43E, E51I
chain: B1 chain
light: B1 light
notes: one-arm antibody
B17: CE115HA000 K64Q (antibody, human IgG1, kappa, L234A L235A, N297A, name in Kabat numbering)
heavy: B1 heavy with E51I, K67Q
chain: B1 chain
light: B1 light
notes: one-arm antibody
B18: CE115HA000 K52I (antibody, human IgG1, kappa, L234A L235A, N297A, name in Kabat numbering)
heavy: B1 heavy with E51I, K52I
chain: B1 chain
light: B1 light
notes: one-arm antibody
B19: CE115HA000 K52Y (antibody, human IgG1, kappa, L234A L235A, N297A, name in Kabat numbering)
heavy: B1 heavy with E51I, K52Y
chain: B1 chain
light: B1 light
notes: one-arm antibody
B20: CE115HA000 K52H (antibody, human IgG1, kappa, L234A L235A, N297A, name in Kabat numbering)
heavy: B1 heavy with E51I, K52H
chain: B1 chain
light: B1 light
notes: one-arm antibody
B21: CE115HA000 K52E (antibody, human IgG1, kappa, L234A L235A, N297A, name in Kabat numbering)
heavy: B1 heavy with E51I, K52E
chain: B1 chain
light: B1 light
notes: one-arm antibody
B22: CE115HA000 K52F (antibody, human IgG1, kappa, L234A L235A, N297A, name in Kabat numbering)
heavy: B1 heavy with E51I, K52F
chain: B1 chain
light: B1 light
notes: one-arm antibody
B23: CE115HA000 K43Q (antibody, human IgG1, kappa, L234A L235A, N297A, name in Kabat numbering)
heavy: B1 heavy with K43Q, E51I
chain: B1 chain
light: B1 light
notes: one-arm antibody
B24: CE115HA000 K52bQ (antibody, human IgG1, kappa, L234A L235A, N297A, name in Kabat numbering)
heavy: B1 heavy with E51I, K54Q
chain: B1 chain
light: B1 light
notes: one-arm antibody
B25: CE115HA000 K75T (antibody, human IgG1, kappa, L234A L235A, N297A, name in Kabat numbering)
heavy: B1 heavy with E51I, K78T
chain: B1 chain
light: B1 light
notes: one-arm antibody
B26: CE115HA000 K64S (antibody, human IgG1, kappa, L234A L235A, N297A, name in Kabat numbering)
heavy: B1 heavy with E51I, K67S
chain: B1 chain
light: B1 light
notes: one-arm antibody
B27: CE115HA000 K52bS (antibody, human IgG1, kappa, L234A L235A, N297A, name in Kabat numbering)
heavy: B1 heavy with E51I, K54S
chain: B1 chain
light: B1 light
notes: one-arm antibody
B28: CE115HA000 K52D (antibody, human IgG1, kappa, L234A L235A, N297A, name in Kabat numbering)
heavy: B1 heavy with E51I, K52D
chain: B1 chain
light: B1 light
notes: one-arm antibody
B29: CE115HA000 L78I (antibody, human IgG1, kappa, L234A L235A, N297A, name in Kabat numbering)
heavy: B1 heavy with E51I, L81I
chain: B1 chain
light: B1 light
notes: one-arm antibody
B30: CE115HA000 K64A (antibody, human IgG1, kappa, L234A L235A, N297A, name in Kabat numbering)
heavy: B1 heavy with E51I, K67A
chain: B1 chain
light: B1 light
notes: one-arm antibody
B31: CE115HA000 K52S (antibody, human IgG1, kappa, L234A L235A, N297A, name in Kabat numbering)
heavy: B1 heavy with E51I, K52S
chain: B1 chain
light: B1 light
notes: one-arm antibody
B32: CE115HA000 K52bR (antibody, human IgG1, kappa, L234A L235A, N297A, name in Kabat numbering)
heavy: B1 heavy with E51I, K54R
chain: B1 chain
light: B1 light
notes: one-arm antibody

What follows are binders tested against T1, CD3 epsilon homodimer protein (UniProt P07766 23-126) (assay: SPR, CD3 epsilon homodimer on chip, one-arm antibody as analyte;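 further: surface plasmon resonance at 25 °C with CD3 epsilon homodimer amine-coupled to a CM4 sensor chip, antibody injected as analyte, HBS-EP+ as running buffer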).
T1 construct: also called CD3 (CD3 epsilon)
T1 sequence (P07766 23-126): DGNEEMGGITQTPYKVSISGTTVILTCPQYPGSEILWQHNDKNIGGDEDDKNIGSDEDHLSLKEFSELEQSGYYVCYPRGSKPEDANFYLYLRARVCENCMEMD

Going from B1 to B2, the “KD ratio (KD of CE115HA000/KD of altered form)” value (from here on “KD ratio”) rises from 0.54 to 0.58.

Going from B3 to B4, the “KD ratio” value rises from 0.84 to 0.88.

First: B5
Second: B6
The “KD ratio” value of the first is lower: 0.43 for the first, 0.76 for the second.

Compared with B7, B8 is lower in “KD ratio” value: 3.29 for the first, 0.96 for the second.

Going from B9 to B10, the “KD ratio” value rises from 0.61 to 1.14.

First: B11
Second: B12
The “KD ratio” value of the first is lower: 0.56 for the first, 0.61 for the second.

Compared with B13, B14 is higher in “KD ratio” value: 0.8 for the first, 1.24 for the second.

First: B15
Second: B16
The “KD ratio” value of the first is higher: 2.69 for the first, 0.88 for the second.

Going from B17 to B18, the “KD ratio” value rises from 0.87 to 3.54.

First: B19
Second: B20
The “KD ratio” value of the first is higher: 6.47 for the first, 2.65 for the second.

Compared with B21, B22 is lower in “KD ratio” value: 19.4 for the first, 4.04 for the second.

Compared with B23, B24 is lower in “KD ratio” value: 0.89 for the first, 0.62 for the second.

Going from B25 to B26, the “KD ratio” value rises from 0.75 to 0.85.

First: B27
Second: B28
The “KD ratio” value of the first is lower: 0.58 for the first, 166 for the second.

Going from B29 to B30, the “KD ratio” value falls from 1.08 to 0.81.

Compared with B31, B32 is lower in “KD ratio” value: 92.1 for the first, 0.91 for the second.
